± gives the uncertainty stated by the source.
Experiment: protein stability index of a GFP-peptide fusion (yeast GPS) (PSI 1-4); higher = more stable; sorted into four equal gates, so the index is relative within each strain
Summary of the method: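 Yeast carrying a pooled library were grown to mid-log phase in leucine-free medium. Each library plasmid expresses Cherry and has a tiled 17-residue yeast protein peptide fused downstream of GFP. Cells were sorted into four equal gates by GFP/Cherry ratio, and plasmids from each gate were PCR-amplified, Illumina-sequenced and assigned to strains by barcode. Summing, across gates, the read frequency times the gate number gave each peptide's protein stability index.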

Row | Sequence | protein stability index (doa10∆) | protein stability index (pdr5∆) | protein stability index (san1∆) | protein stability index (ubr1∆)
1 | MEEEQQRQERLRQQQQQ [RPN10] | 3.4 ± 0.17 | 2.86 ± 0.25 | 3.37 ± 0.066 | 3.39 ± 0.085
2 | MENNEPAMAMEDLKNFI [SRB8] | 3.18 ± 0.074 | 3.29 ± 0.081 | 3.24 ± 0.043 | 3.08 ± 0.068
3 | MFAYAKEHEPCIIFMDE [RPT4] | 2.34 ± 0.043 | 2.32 ± 0.05 | 2.24 ± 0.065 | 2.4 ± 0.043
4 | MFLYILKHLEEMGKLRE [RRI2] | 3.11 ± 0.11 | 3.16 ± 0.11 | 3.04 ± 0.078 | 3.16 ± 0.051
5 | MFRNNYDGDTVTFSPTG [PRE5] | 2.41 ± 0.12 | 2.84 ± 0.096 | 2.52 ± 0.11 | 3.18 ± 0.073
6 | MFTQIYLERIELSFYIL [YML103C/NUP188] | 1.66 ± 0.1 | 1.46 ± 0.074 | 1.36 ± 0.1 | 1.75 ± 0.12
7 | MGKGKPRGLNSARKLRV [RPS23A] | 2.4 ± 0.089 | 3.05 ± 0.08 | 2.96 ± 0.094 | 2.79 ± 0.072
8 | MGPLSNIAQMIPGMSNM [SRP54] | 2.49 ± 0.049 | 2.75 ± 0.045 | 2.58 ± 0.048 | 2.69 ± 0.04
9 | MGRVIRNQRKGAGSIFT [RPL2A] | 2.95 ± 0.2 | 3.28 ± 0.12 | 2.77 ± 0.25 | 2.75 ± 0.15
10 | MGVPIYGIVAMAATATD [FAS2] | 1.34 ± 0.068 | 1.52 ± 0.052 | 1.54 ± 0.089 | 1.47 ± 0.051
11 | MIKESSTANPNIKLLNN [POP1] | 3.07 ± 0.2 | 2.9 ± 0.11 | 2.83 ± 0.087 | 2.74 ± 0.066
12 | MIQEVIVEEDLEPFEAS [FAS2] | 3.5 ± 0.18 | 3.16 ± 0.11 | 3.53 ± 0.063 | 3.47 ± 0.099
13 | MISIIKLVTNVVDPKTS [YML103C/NUP188] | 1.84 ± 0.047 | 1.81 ± 0.045 | 2.04 ± 0.093 | 1.67 ± 0.035
14 | MKAVRKVAEVKKLEGTI [RPT4] | 3.15 ± 0.093 | 3.2 ± 0.1 | 3.16 ± 0.073 | 3.56 ± 0.071
15 | MKFQESLKKVDEIKAQR [SMC4] |  | 3.57 ± 0.26 | 3.34 ± 0.17 | 3.57 ± 0.082
16 | MKKKLELISYRNESLKN [SRB8] | 2.96 ± 0.045 | 2.98 ± 0.058 | 2.94 ± 0.05 | 3.07 ± 0.035
17 | MKLNISYPVNGSQKTFE [RPS6A] | 2.65 ± 0.17 | 2.77 ± 0.12 | 2.79 ± 0.12 | 2.94 ± 0.13
18 | MKLSMPPEVTSSNCHVR [POP1] | 2.4 ± 0.066 | 2.6 ± 0.075 | 2.32 ± 0.076 | 2.48 ± 0.042
19 | MKNENANPKKLALMTAH [CDC53] | 2.12 ± 0.039 | 2.33 ± 0.046 | 2.09 ± 0.048 | 1.79 ± 0.032
20 | MKRNCGQIITLFSSRRL [RMP1] | 2.3 ± 0.045 | 2.46 ± 0.053 | 2.42 ± 0.058 | 2.29 ± 0.071
21 | MLLANISVARKIYDAFP [DIS3] | 1.69 ± 0.04 | 1.91 ± 0.041 | 2 ± 0.093 | 1.73 ± 0.041
22 | MLLITSGDSGVYTLACR [RPC11] | 1.58 ± 0.1 | 2.45 ± 0.13 | 3 ± 0.093 | 2.46 ± 0.088
23 | MLLLNIFISSDHEFVLI [YMR129W/POM152] | 1.64 ± 0.057 | 1.28 ± 0.055 | 1.32 ± 0.098 | 1.23 ± 0.057
24 | MLLVDIIPSRMGEAQTG [REC8] | 1.7 ± 0.063 | 1.87 ± 0.073 | 2.02 ± 0.09 | 2.17 ± 0.061
25 | MLQKKLVEVEDEKIEAI [SRB7] | 3 ± 0.11 | 3.37 ± 0.1 | 3.16 ± 0.082 | 3.39 ± 0.086
26 | MLTIARLGFFYNDQLYV [RPN7] | 2.13 ± 0.093 | 1.66 ± 0.19 | 1.47 ± 0.29 | 2.2 ± 0.19
27 | MLVKAVANSTKAAFIRV [RPT3] | 1.97 ± 0.05 | 1.5 ± 0.047 | 1.38 ± 0.11 | 1.27 ± 0.036

Row | Sequence | protein stability index (doa10∆) | protein stability index (pdr5∆) | protein stability index (san1∆) | protein stability index (ubr1∆)
28 | MMEEIINVVIKASRKSV [ECM29] | 1.76 ± 0.073 | 1.75 ± 0.068 | 2.04 ± 0.21 | 1.53 ± 0.12
29 | MMLGEHLMSWSKTGIIA [SIN4] | 1.6 ± 0.11 | 1.24 ± 0.11 | 1.06 ± 0.13 | 1.53 ± 0.27
30 | MMVNNQTMQLIKNVQDL [SRB6] | 2.84 ± 0.25 | 2.3 ± 0.16 | 1.64 ± 0.13 | 3.03 ± 0.17
31 | MNDVINTEEVNRLEKEQ [LIN1] | 2.99 ± 0.1 | 3.31 ± 0.17 | 3.27 ± 0.074 | 3.61 ± 0.085
32 | MNGIQVDINRLKKGEVS [PRE3] | 2.15 ± 0.095 | 1.57 ± 0.063 | 2.52 ± 0.082 | 1.36 ± 0.061
33 | MNGNGKPGIPRGNTKIH [SIR3] |  | 2.83 ± 0.23 | 3.32 ± 0.094 | 3.25 ± 0.18
34 | MNHDPFSWGRPADSTYG [PRE4] | 3.05 ± 0.086 | 3.28 ± 0.087 | 3.15 ± 0.057 | 3.22 ± 0.052
35 | MNMFGGGMGGGMGGGMP [SRP54] | 1.38 ± 0.055 | 2.43 ± 0.21 | 1.69 ± 0.17 | 1.53 ± 0.18
36 | MNNQPQGTNSVPNSIGN [SNF5] | 2.87 ± 0.074 | 3.1 ± 0.096 | 3.04 ± 0.12 | 2.92 ± 0.055
37 | MPNIELYLKVIPMDFIR [SSN2] | 2.22 ± 0.072 | 2.14 ± 0.076 | 1.95 ± 0.082 | 2.54 ± 0.079
38 | MPSRFTKTRKHRGHVSA [RPL28] | 1.92 ± 0.06 | 2.19 ± 0.062 | 2.09 ± 0.12 | 2.39 ± 0.062
39 | MQKPVPFVPVLDRRFEI [FAS1] | 1.98 ± 0.034 | 1.95 ± 0.03 | 1.82 ± 0.043 | 1.92 ± 0.028
40 | MQKQHEMKTQAAELQEK [SNF6] | 1.79 ± 0.14 | 3 ± 0.17 | 3.05 ± 0.055 | 2.54 ± 0.063
41 | MQQAQFQAQQAQQAQQA [SNF2] | 2.56 ± 0.043 | 2.86 ± 0.039 | 2.62 ± 0.032 | 2.53 ± 0.032
42 | MRDKSFGRTLASVTKEI [RPL12A] | 3.25 ± 0.1 | 3.08 ± 0.12 | 2.87 ± 0.13 | 2.81 ± 0.18
43 | MRFNIEIIADWIWDMNV [BRR2] | 2.61 ± 0.066 | 2.12 ± 0.075 | 2.7 ± 0.088 | 2.39 ± 0.041
44 | MSAPQAKILSQAPTELE [RPS7A] | 2.79 ± 0.08 | 2.9 ± 0.068 | 2.41 ± 0.1 | 2.53 ± 0.073
45 | MSDSIISFAAFILADAG [RPP1B] | 1.62 ± 0.069 | 1.35 ± 0.049 | 1.31 ± 0.2 | 1.26 ± 0.057
46 | MSDVEEVVEVQEETVVE [RPS12] | 3.15 ± 0.1 | 3.36 ± 0.11 | 2.89 ± 0.084 | 3.12 ± 0.12
47 | MSGFSLSEYLTKFQTTD [YCS4] |  |  |  | 2.9 ± 0.14
48 | MSGILHCEDKDYKTAFS [RPN6] | 2.95 ± 0.07 | 2.89 ± 0.071 | 2.51 ± 0.072 | 3.16 ± 0.049
49 | MSGSLSRGNGGKKVLNK [POP1] | 1.34 ± 0.15 | 2.48 ± 0.11 | 1.32 ± 0.22 | 2.97 ± 0.11
50 | MSGTTKRLNGKRKYLDI [SSN2] |  |  |  | 3.55 ± 0.12
51 | MSLINDAMVTRTPVIIS [SMD2] | 1.26 ± 0.07 | 1.7 ± 0.066 | 1.47 ± 0.12 | 1.52 ± 0.085
52 | MSNDPGNEVSSLYPPPP [MED7] | 3.21 ± 0.1 | 2.92 ± 0.071 | 2.69 ± 0.082 | 3.08 ± 0.062
53 | MSNTLFDDIFQVSEVDP [RPB8] | 3.02 ± 0.084 | 2.77 ± 0.098 | 2.85 ± 0.1 | 3.08 ± 0.054

— the supplement of paper PMC9732359
